Assay results as given in patent US20250320312A1 (OXITOPE PHARMA B V, published 2025).

Columns and labels:
Experiment in all cases: scFv ELISA
BSA = BSA (UniProt P02769)
[1] = biological target: Peptide 5: Biotin-…-[Tyr(PC)]-acid
[2] = biological target: Peptide 1: Biotin-…-[Tyr(PC)]-acid
[3] = biological target: T1, Peptide 8: Biotin-AEAAAKEAAAKEAAAKEAAAKAAA-Tyr-acid (N-terminal biotin; C-terminal acid)
T1 construct: control peptide without PC
T1 peptide: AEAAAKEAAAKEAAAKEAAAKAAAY
Description: (§1) For ELISA analysis of scFv binding, 96-well polystyrene plates were coated with Peptide 1, 4, 5, 8 or 100 μL BSA (10 μg/mL) in PBS at 4° C. overnight. Plates were washed three times with PBS-Tween and blocked with 100 μL 1% BSA-TBS for 1 hour at room temperature. 96-well streptavidin coated plates were coated with 100 μL biotinylated PC-peptides (1 μg/mL) in PBS for 1 hour at room temperature.
(§2) All plates were washed three times with PBS-Tween before 40 μL aliquots of PPE were added to assay plates along with 50 μL 10% BSA, and plates were incubated for 1 hour at room temperature. After washing, […] HRP conjugated anti-V5 in 5% BSA was added, and plates were incubated at room temperature for 30 mins. Plates were washed and 100 μL TMB substrate was added. Color was left to develop at room temperature before the reaction was stopped with 100 μL 1N HCl. The amount of scFv bound to each well was quantitated from absorbance measurement at 450 nm (OD450).

[4] = biological target: T2, Peptide 4: Biotin-AGGGGSGGGGSGGGGSAAA-Tyr-acid (N-terminal biotin; C-terminal acid)
T2 construct: control peptide without PC
T2 peptide: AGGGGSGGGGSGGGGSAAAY
Description: as §1, §2

Chain of BSA (P02769 25-607 limits assumed): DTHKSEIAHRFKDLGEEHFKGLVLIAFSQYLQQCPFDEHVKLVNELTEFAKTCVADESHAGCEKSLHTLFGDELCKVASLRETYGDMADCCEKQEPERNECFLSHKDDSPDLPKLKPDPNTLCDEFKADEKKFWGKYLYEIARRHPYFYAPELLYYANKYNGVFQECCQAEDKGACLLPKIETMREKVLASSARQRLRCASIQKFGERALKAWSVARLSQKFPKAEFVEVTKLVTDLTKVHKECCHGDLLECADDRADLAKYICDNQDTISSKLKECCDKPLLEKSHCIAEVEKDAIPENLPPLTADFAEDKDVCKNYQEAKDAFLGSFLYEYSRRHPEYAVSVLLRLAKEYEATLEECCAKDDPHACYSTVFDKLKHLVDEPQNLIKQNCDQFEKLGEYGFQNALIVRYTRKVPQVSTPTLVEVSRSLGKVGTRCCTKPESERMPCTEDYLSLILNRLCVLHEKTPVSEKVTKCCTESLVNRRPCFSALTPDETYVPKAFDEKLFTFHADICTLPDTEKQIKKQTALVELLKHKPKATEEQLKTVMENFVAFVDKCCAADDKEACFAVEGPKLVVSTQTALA

Row | Binder | OD450 (BSA) [OD450] | OD450 [1] [OD450] | OD450 [2] [OD450] | OD450 [3] [OD450] | OD450 [4] [OD450]
1 | PcOxP_DB02_A06 (scFv, V domains shown, scFv in periplasmic extract) VH: EVQLLESGGGLVQPGGSLRLSCAASGFTFSDQYMEWVRQAPGKGLEWVAASRNKANDYTTEYADSVKGRFTISRDNSKNTLYLQMNSLRAEDTAVYYCARDYYGSSYWYFDVWGQGTLVTVSS VL: DIQMTQSPSSLSASVGDRVTITCTASESLYSSKHKVHYLAWYQQKPGKAPKLLIYGLSNRYIGVPSRFSGSGSGTDFTLTISSLQPEDFATYYCAQFYSYPLTFGGGTKVEIK | 0.1 | 1.07 | 1.12 | 0.05 | 0.05
2 | PcOxP_DB02_C11 (scFv, V domains shown, scFv in periplasmic extract) VH: EVQLLESGGGLVQPGGSLRLSCAASGFTSSDFYMEWVRQAPGKGLEWVAASRNKANDYYTEYADSVKGRFTISRDNSKNTLYLQMNSLRAEDTAVYYCARDYYGSSYWYFDVWGQGTLVTVSS VL: DIQMTQSPSSLSASVGDRVTITCTASESLYSSKHKVHYLAWYQQKPGKAPKLLIYGASNRYIGVPSRFSGSGSGTDFTLTISSLQPEDFATYYCAQFYSYPLTFGGGTKVEIK | 0.1 | 0.24 | 0.12 | 0.04 | 0.05
3 | PcOxP_DB02_A11 (scFv, V domains shown, scFv in periplasmic extract) VH: EVQLLESGGGLVQPGGSLRLSCAASGFTFSDGYMEWVRQAPGKGLEWVAASRNIANDYTTEYADSVKGRFTISRDNSKNTLYLQMNSLRAEDTAVYYCARDYYGSSYWYFDVWGQGTLVTVSS VL: DIQMTQSPSSLSASVGDRVTITCTASESLYSSKHKVHYLAWYQQKPGKAPKLLIYGASNRYHGVPSRFSGSGSGTDFTLTISSLQPEDFATYYCAQFYYYPLTFGGGTKVEIK | 0.09 | 0.89 | 0.64 | 0.04 | 0.04
4 | PcOxP_DB02_B06 (scFv, V domains shown, scFv in periplasmic extract) VH: EVQLLESGGGLVQPGGSLRLSCAASGFTFSDNYMEWVRQAPGKGLEWVAASRNKANDYTTEYADSVKGRFTISRDNSKNTLYLQMNSLRAEDTAVYYCARDYYGSSYWYFDVWGQGTLVTVSS VL: DIQMTQSPSSLSASVGDRVTITCTASESLYSSKHKVHYLAWYQQKPGKAPKLLIYGASNRYIGVPSRFSGSGSGTDFTLTISSLQPEDFATYYCTQFYSYPLTFGGGTKVEIK | 0.11 | 0.79 | 0.35 | 0.04 | 0.07
5 | PcOxP_DB02_B12 (scFv, V domains shown, scFv in periplasmic extract) VH: EVQLLESGGGLVQPGGSLRLSCAASGFTFSDYYMEWVRQAPGKGLEWVAASRNKANDYTTEYADSVKGRFTISRDNSKNTLYLQMNSLRAEDTAVYYCARDYYGSSYWYFDVWGQGTLVTVSS VL: DIQMTQSPSSLSASVGDRVTITCTASESLYSSKHKVHYLAWYQQKPGKAPKLLIYGQSNRYIGVPSRFSGSGSGTDFTLTISSLQPEDFATYYCAQFYSYPLTFGGGTKVEIK | 0.1 | 1.34 | 2.33 | 0.04 | 0.05
6 | PcOxP_DB02_B02 (scFv, V domains shown, scFv in periplasmic extract) VH: EVQLLESGGGLVQPGGSLRLSCAASGFTFSDYYMEWVRQAPGKGLEWVAASRNSGNDYTTEYADSVKGRFTISRDNSKNTLYLQMNSLRAEDTAVYYCARDYYGSSYWYFDVWGQGTLVTVSS VL: DIQMTQSPSSLSASVGDRVTITCTASESLYSSKHKVHYLAWYQQKPGKAPKLLIYGASNRLIGVPSRFSGSGSGTDFTLTISSLQPEDFATYYCAQFYWYPLTFGGGTKVEIK | 0.11 | 0.98 | 0.49 | 0.05 | 0.05
7 | PcOxP_DB02_B10 (scFv, V domains shown, scFv in periplasmic extract) VH: EVQLLESGGGLVQPGGSLRLSCAASGFTESDFYMEWVRQAPGKGLEWVAASRNKANDYTTEYADSVKGRFTISRDNSKNTLYLQMNSLRAEDTAVYYCARDYYGSSYWYFDVWGQGTLVTVSS VL: DIQMTQSPSSLSASVGDRVTITCTASESLYSSKHKVHYLAWYQQKPGKAPKLLIYGASNRYIGVPSRFSGSGSGTDFTLTISSLQPEDFATYYCAQFYVYPLTFGGGTKVEIK | 0.08 | 1.03 | 0.67 | 0.04 | 0.04
8 | PcOxP_DB02_A10 (scFv, V domains shown, scFv in periplasmic extract) VH: EVQLLESGGGLVQPGGSLRLSCAASGFAFSDFYMEWVRQAPGKGLEWVAASRNKANDYTTEYADSVKGRFTISRDNSKNTLYLQMNSLRAEDTAVYYCARDYYGSSYWYFDVWGQGTLVTVSS VL: DIQMTQSPSSLSASVGDRVTITCTASESLYSSKHKVHYLAWYQQKPGKAPKLLIYGASNRQSGVPSRFSGSGSGTDFTLTISSLQPEDFATYYCAQFYAYPLTFGGGTKVEIK | 0.11 | 0.9 | 0.42 | 0.04 | 0.05
